Assay results: patent US20220305003A1, “METHODS OF TREATING CANCER WITH AN INHIBITOR OF ZNF827” (CHILDREN'S MEDICAL RESEARCH INSTITUTE, priority 2019, published 2022)

Molecular target: T1, ZNF827 ZnF1-3 deleted (Homo sapiens, UniProt Q17R98 SEQ:4-997)
T1 chain: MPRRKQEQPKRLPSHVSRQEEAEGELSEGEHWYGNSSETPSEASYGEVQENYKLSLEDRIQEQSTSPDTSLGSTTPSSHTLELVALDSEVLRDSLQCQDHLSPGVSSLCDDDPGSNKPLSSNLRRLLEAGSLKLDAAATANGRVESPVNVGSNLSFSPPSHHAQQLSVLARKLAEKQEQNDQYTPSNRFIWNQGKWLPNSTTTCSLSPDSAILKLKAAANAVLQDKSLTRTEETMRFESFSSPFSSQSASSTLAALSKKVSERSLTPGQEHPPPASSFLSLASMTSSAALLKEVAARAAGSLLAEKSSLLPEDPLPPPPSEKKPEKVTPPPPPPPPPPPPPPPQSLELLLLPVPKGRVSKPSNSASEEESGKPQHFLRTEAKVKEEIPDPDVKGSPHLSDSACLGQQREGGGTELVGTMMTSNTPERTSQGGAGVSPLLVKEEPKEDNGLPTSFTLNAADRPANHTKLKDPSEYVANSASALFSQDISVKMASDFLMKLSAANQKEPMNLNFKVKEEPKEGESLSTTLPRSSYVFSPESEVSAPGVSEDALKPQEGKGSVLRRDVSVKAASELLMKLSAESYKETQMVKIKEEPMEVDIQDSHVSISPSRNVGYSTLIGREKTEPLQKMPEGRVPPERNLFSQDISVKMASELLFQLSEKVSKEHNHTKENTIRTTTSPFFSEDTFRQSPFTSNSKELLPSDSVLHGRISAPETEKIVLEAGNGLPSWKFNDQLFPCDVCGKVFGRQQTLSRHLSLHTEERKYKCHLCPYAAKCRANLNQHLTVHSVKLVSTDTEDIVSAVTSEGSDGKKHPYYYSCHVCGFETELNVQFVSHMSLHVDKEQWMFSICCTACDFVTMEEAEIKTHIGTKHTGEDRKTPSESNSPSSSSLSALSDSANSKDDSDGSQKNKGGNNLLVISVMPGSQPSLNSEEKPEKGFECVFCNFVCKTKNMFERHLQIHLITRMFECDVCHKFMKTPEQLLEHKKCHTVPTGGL
Assay: EMSA; interaction abolished
Details: tags: HaloTag (pHTN), expressed in HEK 293T, tag removed by HaloTEV cleavage; label: 32P (gamma)
Protocol: Purified proteins were quantified using a BCA assay using the Pierce™ BCA Protein Assay Kit according to the manufacturer's instructions. Equal amounts of purified proteins were incubated in binding buffer (20 mM HEPES-KOH, pH7.9, 100 mM KCl, 0.8 mM ZnCl₂, 0.2 mM EDTA, 5% glycerol, 0.5 mM DTT and 0.5 mM PMSF) with 6.25 μg/mL poly (dI:dC) and 50 ng/μL BSA on ice for 20 minutes. ˜0.12 nM (˜2.5 fmol) γ-³²P labelled DNA oligonucleotide (see Table 3) probes were added to samples and incubated on ice for another 30 minutes. Binding reactions were loaded onto an 8% native acrylamide/bisacrylamide (19:1, Biorad) gel pre-run at 100V in 0.5× TB buffer (89 mM Tris, 89 mM boric acid) for 20 minutes. Gels were electrophoresed at 150 V for 150 minutes at 4° C., dried at 65° C. for 45 minutes, and then exposed to a Phosphor screen overnight. Gel images were obtained by scanning the screens with a Typhoon FLA9500 Imager (GE Life Sciences).

Question: Does TTAGGGTTAGGGTTAGGG (ssDNA) [ss telomeric G rich oligo] bind?
Answer: no binding
